Measurements taken from patent publication US20220064276A1 (SCHOLAR ROCK, published 2022).
Numbering of substitutions follows the chain as printed. Each block holds one binder with its values, some of them ahead of it.

Columns and labels:
[1] = molecular target: T1, mouse GARP-proTGFβ1 complex (mouse, UniProt G3XA59 18-628; P04202 30-390, limits assumed); test: SPR Biacore 8K, monovalent Fab
T1 construct: Exemplary entries; also called MuGARP-ProTGFb1; Mu GARP-ProTGFβ1
Procedure: (§1) Data collection rate was set to 10 Hz and the Biotin CAPture step was performed for 300 seconds with a flow rate of 2 μL/minute. The Biotin CAPture reagent was used after a 1:5 dilution in 1× Biacore running buffer. Biotinylated ligands (the various complexes of TGFβ1) were utilized at a concentration of 10 nM and were immobilized to the sensor chip for 180 seconds with a flow rate of 10 μL/minute. […] Analyte contact time was 120 seconds and the dissociation time was 900 seconds. The regeneration cycle utilized was 120 seconds with a flow rate of 10 μL/minute.
(§2) The evaluation method used was “multi-cycle affinity using capture” and a 1:1 binding model was used. […] Global fits were utilized for every KD determination.
(§3) The monovalent half-binding-time (T^{1/2}) value was at least 45 minutes for each of hLTBP1-proTGFβ1 and hLTBP3-proTGFβ1 complexes. The monovalent T^{1/2} value was less than 5 minutes for each of hGARP-proTGFβ1 and hLRRC33-proTGFβ1 complexes, as measured by SPR.

[2] = molecular target: T2, human LTBP1-proTGFβ1 complex (human, UniProt Q14766 347-1721; P01137 30-390); test: SPR Biacore 8K, monovalent Fab
T2 construct: Large latent complex: one presenting molecule disulfide-linked to a proTGFβ1 dimer; also called Hu LTBP1-proTGFβ1; huLTBP1 proTGFβ1
Procedure: as §1, §2, §3

[3] = molecular target: T3, mouse LTBP1-proTGFβ1 complex (mouse, UniProt Q8CG19 339-1712; P04202 30-390); test: SPR Biacore 8K, monovalent Fab
T3 construct: Exemplary entries; In the cell assays expressed from mouse LTBP1S and mouse proTGFb1 plasmids in LN229 cells; also called Mo LTBP1-proTGFβ1; MuLTBP1-ProTGFb1
Procedure: as §1, §2, §3

[4] = molecular target: T4, human GARP-proTGFβ1 complex (human, UniProt Q14392 18-627; P01137 30-390, limits assumed); test: SPR Biacore 8K, monovalent Fab
T4 construct: Exemplary entries; also called Hu GARP-proTGFβ1; huGARP proTGFb1
Procedure: as §1, §2, §3

[5] = molecular target: T5, mouse LTBP3-proTGFβ1 complex (mouse, UniProt Q61810 41-1245; P04202 30-390, limits assumed); test: SPR Biacore 8K, monovalent Fab
T5 construct: Exemplary entries; also called Mo LTBP3-proTGFβ1; Murine LTBP3 proTGFb1
Procedure: as §1, §2, §3

[6] = molecular target: T6, mouse LRRC33-proTGFβ1 complex (mouse, UniProt Q8BMT4 20-651, limits assumed); test: SPR Biacore 8K, monovalent Fab
T6 construct: also called MuLRRC33-ProTGFb1; Mu LRRC33-ProTGFβ1
Procedure: as §1, §2, §3

[7] = molecular target: T7, human LRRC33-proTGFβ1 complex (human, UniProt Q86YC3 19-650; P01137 30-390, limits assumed); test: SPR Biacore 8K, monovalent Fab
T7 construct: Exemplary entries; also called huLRRC33 proTGFb1; HuLRRC33-ProTGFb1
Procedure: as §1, §2, §3

[8] = molecular target: T8, human LTBP3-proTGFβ1 complex (human, UniProt Q9NS15 44-1303; P01137 30-390, limits assumed); test: SPR Biacore 8K, monovalent Fab
T8 construct: Exemplary entries; also called Hu LTBP3-proTGFβ1; huLTBP3 proTGFb1
Procedure: as §1, §2, §3

[9] = molecular target: T5, mouse LTBP3-proTGFβ1 complex; test: SPR Biacore 8K, Fab over captured antigen; mean of 2
Procedure: (§4) A Biacore 8K system was employed to determine the monovalent binding affinity and the kinetic parameters for antigen binding of test antibodies. Association and dissociation kinetics of Fab fragments SR-AB42-HuFab, SR-AB63-HuFab and SR-AB43-HuFab to antigen complexes were measured, and resulting ka, kd and KD are provided below. Briefly, the binding kinetics were evaluated by surface plasmon resonance using Biacore 8K (GE Healthcare). Biotinylated capture antigens were immobilized to the chip (10 nM, ˜200 RU loading). A Biotin CAPture sensor chip was used to capture the biotinylated antigens. […] 0 nM was used as a reference. […] 0 nM was used as a reference. Multi-cycle kinetics was employed where each analyte concentration was injected in a separate cycle and the sensor chip surface was regenerated after each cycle. A11 the assays were carried out in freshly prepared 1× HBS-EP+ buffer (10 mM HEPES, 150 mM NaCl, 3 mM EDTA, 0.05% Tween20, pH 7.4). Data were fit globally to a 1:1 binding model to obtain the kinetic parameters. The sensorgram for 0 nM analyte concentration was used as reference.

[10] = molecular target: T1, mouse GARP-proTGFβ1 complex; test: SPR Biacore 8K, Fab over captured antigen, Rmax fixed
Procedure: (§5) These experiments were performed using the Biacore 8K using the method “multi-cycle kinetics/affinity using Biotin CAPture kit.”
as §1, §2

[11] = molecular target: T2, human LTBP1-proTGFβ1 complex; test: as above
Procedure: as §5, §1, §2

[12] = molecular target: T3, mouse LTBP1-proTGFβ1 complex; test: as above
Procedure: as §5, §1, §2

[13] = molecular target: T4, human GARP-proTGFβ1 complex; test: as above
Procedure: as §5, §1, §2

[14] = molecular target: T5, mouse LTBP3-proTGFβ1 complex; test: as above
Procedure: as §5, §1, §2

[15] = molecular target: T6, mouse LRRC33-proTGFβ1 complex; test: as above
Procedure: as §5, §1, §2

[16] = molecular target: T7, human LRRC33-proTGFβ1 complex; test: as above
Procedure: as §5, §1, §2

[17] = molecular target: T8, human LTBP3-proTGFβ1 complex; test: as above
Procedure: as §5, §1, §2

[18] = molecular target: T2, human LTBP1-proTGFβ1 complex; test: SPR Biacore 8K, Fab over captured antigen; mean of 5
Procedure: as §4

[19] = molecular target: T4, human GARP-proTGFβ1 complex; test: SPR Biacore 8K, Fab up to 100 nM over captured antigen
Procedure: as §4

[20] = molecular target: T7, human LRRC33-proTGFβ1 complex; test: as above
Procedure: as §4

[21] = molecular target: T8, human LTBP3-proTGFβ1 complex; test: SPR Biacore 8K, Fab over captured antigen
Method in brief: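 Biotinylated antigen complexes captured on a Biotin CAPture chip (10 nM, ~200 RU), with Fab fragments injected as analyte by multi-cycle kinetics and regeneration between cycles. Runs in HBS-EP+ pH 7.4, 0 nM analyte as reference; ka, kd and KD from a global 1:1 binding fit.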

[22] = molecular target: T2, human LTBP1-proTGFβ1 complex; test: Octet BLI, IgG captured
Method in brief: (§6)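 IgG captured on the Octet biosensor, with complex antigen associating for 3 min and dissociating for 5 min in kinetics buffer. KD was fitted with a 1:1 binding model for each antibody–antigen pair.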

[23] = molecular target: T3, mouse LTBP1-proTGFβ1 complex; test: Octet BLI, IgG captured
Method in brief: as §6

[24] = molecular target: T5, mouse LTBP3-proTGFβ1 complex; test: Octet BLI, IgG captured
Method in brief: as §6

[25] = molecular target: T8, human LTBP3-proTGFβ1 complex; test: Octet BLI, IgG captured
Method in brief: as §6

[26] = molecular target: T4, human GARP-proTGFβ1 complex; test: Octet BLI (N.B. = non-binder under conditions of this assay)
Procedure: Binding affinities of the optimized antibodies were measured by Octet against human LTBP1-proTGFβ1, human LTBP3-proTGFβ1, mouse LTBP1-proTGFβ1, mouse LTBP3-proTGFβ1, and GARP-proTGFβ1 complexes, essentially as described in Example 6. […] The antigens were allowed to associate for 3 minutes followed by a 5-minute dissociation. Kinetics buffer (ForteBio®) was used throughout the experiment, and KD was determined using a 1:1 fitting model for each antibody antigen pair.
Table 9 presents the binding profile and affinity data for the indicated LTBP complex-specific antibodies (IgG1-agly) identified from the light chain optimization cycle 3, determined by Octet.

[27] = molecular target: LTBP-proTGFβ1: transfected human proTGFβ1 presented by endogenous LTBP1/3 of LN229 cells (human); test: cell-based or functional assay
[28] = molecular target: T3, mouse LTBP1-proTGFβ1 complex; test: cell-based or functional assay

T7 sequence (Q86YC3 19-650 limits assumed, chain 1 of 2): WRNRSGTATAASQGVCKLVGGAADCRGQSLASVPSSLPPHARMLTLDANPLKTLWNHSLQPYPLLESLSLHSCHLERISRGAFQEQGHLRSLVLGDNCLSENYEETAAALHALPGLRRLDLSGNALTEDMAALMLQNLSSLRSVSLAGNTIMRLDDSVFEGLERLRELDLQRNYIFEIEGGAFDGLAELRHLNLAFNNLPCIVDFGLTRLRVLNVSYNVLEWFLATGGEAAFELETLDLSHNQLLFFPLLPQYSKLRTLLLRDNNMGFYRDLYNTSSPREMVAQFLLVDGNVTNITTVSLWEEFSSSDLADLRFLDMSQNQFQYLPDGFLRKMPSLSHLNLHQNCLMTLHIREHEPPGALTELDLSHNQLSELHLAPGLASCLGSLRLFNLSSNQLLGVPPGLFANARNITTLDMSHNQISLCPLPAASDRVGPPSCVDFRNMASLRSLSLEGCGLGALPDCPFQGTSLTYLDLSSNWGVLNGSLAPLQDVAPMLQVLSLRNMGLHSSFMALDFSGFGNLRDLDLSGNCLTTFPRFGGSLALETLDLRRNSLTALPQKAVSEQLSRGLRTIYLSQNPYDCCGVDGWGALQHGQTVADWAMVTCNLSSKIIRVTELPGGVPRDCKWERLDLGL
T7 sequence (P01137 30-390 limits assumed, chain 2 of 2): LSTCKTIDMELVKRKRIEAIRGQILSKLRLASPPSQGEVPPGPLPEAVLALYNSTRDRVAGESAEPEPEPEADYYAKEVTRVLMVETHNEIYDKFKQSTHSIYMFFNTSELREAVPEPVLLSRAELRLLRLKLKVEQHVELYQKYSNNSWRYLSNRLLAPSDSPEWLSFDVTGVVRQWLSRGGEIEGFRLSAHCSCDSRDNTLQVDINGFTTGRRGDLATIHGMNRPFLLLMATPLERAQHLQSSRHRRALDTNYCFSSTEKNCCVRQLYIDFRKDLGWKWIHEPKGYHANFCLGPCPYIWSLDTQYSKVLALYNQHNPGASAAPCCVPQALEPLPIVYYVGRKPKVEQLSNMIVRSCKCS
T3 sequence (Q8CG19 339-1712 limits assumed, chain 1 of 2): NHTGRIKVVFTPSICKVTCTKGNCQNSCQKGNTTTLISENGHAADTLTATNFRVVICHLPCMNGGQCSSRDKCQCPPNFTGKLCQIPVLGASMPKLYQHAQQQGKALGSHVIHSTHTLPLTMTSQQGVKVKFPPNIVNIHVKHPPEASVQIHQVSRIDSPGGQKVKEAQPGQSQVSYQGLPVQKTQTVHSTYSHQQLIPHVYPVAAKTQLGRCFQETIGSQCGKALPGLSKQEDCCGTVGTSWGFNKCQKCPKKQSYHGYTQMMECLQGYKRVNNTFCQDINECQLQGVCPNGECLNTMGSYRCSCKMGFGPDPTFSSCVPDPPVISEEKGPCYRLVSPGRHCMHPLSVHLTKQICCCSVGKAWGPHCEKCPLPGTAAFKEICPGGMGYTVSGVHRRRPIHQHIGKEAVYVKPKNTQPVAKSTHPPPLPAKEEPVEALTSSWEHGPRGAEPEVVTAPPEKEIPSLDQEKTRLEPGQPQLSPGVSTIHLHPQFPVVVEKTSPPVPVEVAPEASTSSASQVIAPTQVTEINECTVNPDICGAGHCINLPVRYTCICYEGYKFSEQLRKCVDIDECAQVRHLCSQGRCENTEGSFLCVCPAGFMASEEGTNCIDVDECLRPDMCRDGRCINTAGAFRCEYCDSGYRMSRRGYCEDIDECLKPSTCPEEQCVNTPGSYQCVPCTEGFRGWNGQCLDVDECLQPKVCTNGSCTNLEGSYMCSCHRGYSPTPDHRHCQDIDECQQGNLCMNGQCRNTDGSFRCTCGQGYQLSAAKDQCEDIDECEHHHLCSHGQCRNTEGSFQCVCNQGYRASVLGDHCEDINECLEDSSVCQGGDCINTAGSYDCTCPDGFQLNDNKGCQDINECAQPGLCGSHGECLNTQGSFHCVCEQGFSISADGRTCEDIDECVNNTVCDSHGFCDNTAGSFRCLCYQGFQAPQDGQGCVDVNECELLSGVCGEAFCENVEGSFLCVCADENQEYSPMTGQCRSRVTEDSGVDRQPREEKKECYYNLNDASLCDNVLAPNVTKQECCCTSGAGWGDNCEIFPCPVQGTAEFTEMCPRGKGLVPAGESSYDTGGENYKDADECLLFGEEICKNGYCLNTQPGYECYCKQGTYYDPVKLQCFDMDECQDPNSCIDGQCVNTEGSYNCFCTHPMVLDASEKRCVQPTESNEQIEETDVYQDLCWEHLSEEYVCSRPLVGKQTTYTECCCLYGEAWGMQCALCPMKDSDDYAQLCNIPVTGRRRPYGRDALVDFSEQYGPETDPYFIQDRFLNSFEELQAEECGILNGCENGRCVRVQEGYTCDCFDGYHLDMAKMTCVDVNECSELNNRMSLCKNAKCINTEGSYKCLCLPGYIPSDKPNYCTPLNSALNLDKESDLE
T3 sequence (P04202 30-390 limits assumed, chain 2 of 2): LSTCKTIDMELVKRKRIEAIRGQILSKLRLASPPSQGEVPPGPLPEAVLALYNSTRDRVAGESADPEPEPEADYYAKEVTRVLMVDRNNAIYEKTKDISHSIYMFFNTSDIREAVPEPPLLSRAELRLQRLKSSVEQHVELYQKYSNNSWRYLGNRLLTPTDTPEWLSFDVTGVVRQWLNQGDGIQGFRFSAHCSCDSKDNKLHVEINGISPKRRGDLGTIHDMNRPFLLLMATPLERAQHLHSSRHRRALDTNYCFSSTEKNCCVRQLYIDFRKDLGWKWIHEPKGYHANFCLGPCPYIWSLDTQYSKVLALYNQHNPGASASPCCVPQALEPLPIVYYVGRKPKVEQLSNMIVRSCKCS
T8 sequence (Q9NS15 44-1303 limits assumed, chain 1 of 2): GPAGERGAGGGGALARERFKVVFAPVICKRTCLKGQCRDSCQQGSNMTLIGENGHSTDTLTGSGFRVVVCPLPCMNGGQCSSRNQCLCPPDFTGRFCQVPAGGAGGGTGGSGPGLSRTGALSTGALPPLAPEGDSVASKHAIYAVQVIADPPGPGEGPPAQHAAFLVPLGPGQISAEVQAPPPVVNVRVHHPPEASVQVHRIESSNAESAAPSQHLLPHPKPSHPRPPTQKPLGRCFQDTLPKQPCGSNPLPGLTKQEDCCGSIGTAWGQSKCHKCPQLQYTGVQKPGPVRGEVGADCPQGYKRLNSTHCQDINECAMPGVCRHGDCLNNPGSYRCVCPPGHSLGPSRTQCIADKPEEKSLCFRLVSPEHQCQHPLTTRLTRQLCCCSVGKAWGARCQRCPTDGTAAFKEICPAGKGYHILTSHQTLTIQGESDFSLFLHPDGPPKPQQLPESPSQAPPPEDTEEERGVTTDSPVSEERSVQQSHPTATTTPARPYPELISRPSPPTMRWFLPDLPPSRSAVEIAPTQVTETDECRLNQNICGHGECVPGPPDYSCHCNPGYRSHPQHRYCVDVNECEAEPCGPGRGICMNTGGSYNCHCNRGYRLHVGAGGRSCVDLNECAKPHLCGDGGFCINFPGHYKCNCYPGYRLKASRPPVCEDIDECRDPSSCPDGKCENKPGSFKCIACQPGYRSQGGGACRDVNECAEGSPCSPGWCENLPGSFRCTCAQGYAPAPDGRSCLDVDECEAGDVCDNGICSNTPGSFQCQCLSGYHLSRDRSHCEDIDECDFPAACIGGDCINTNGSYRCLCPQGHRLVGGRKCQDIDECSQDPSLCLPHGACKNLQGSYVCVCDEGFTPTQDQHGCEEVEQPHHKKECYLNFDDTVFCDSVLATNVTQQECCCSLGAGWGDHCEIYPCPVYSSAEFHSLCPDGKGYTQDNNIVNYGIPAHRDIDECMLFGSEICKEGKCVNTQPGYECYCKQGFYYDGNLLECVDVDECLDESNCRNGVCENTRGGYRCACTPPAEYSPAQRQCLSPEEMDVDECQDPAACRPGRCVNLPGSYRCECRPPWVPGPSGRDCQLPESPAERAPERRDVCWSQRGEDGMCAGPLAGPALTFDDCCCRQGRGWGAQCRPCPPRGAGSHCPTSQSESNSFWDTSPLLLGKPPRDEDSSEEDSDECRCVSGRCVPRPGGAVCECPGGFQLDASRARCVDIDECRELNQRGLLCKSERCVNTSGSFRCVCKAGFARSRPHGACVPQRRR
T8 sequence (P01137 30-390 limits assumed, chain 2 of 2): as the sequence (P01137 30-390 limits assumed, chain 2 of 2) above
T6 sequence (Q8BMT4 20-651 limits assumed, chain 1 of 2): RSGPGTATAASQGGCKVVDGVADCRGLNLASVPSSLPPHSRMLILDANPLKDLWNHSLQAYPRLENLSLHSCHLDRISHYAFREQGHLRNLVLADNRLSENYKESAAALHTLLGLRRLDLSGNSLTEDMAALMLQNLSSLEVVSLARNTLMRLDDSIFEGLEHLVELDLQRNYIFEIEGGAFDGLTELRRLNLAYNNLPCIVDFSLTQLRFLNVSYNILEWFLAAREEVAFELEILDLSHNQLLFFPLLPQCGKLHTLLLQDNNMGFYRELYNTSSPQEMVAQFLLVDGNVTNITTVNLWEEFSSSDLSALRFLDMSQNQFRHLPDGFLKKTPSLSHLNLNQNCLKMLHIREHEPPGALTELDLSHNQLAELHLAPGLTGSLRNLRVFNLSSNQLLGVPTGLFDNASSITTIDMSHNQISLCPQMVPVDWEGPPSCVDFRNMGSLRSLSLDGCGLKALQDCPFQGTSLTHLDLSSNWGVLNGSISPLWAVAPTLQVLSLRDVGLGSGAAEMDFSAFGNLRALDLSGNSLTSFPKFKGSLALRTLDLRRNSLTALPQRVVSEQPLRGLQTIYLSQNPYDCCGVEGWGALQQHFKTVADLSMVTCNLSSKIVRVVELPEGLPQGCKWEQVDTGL
T6 sequence (chain, as listed by the source limits assumed, chain 2 of 2): as the sequence (P04202 30-390 limits assumed, chain 2 of 2) above
LTBP-proTGFβ1: transfected human proTGFβ1 presented by endogenous LTBP1/3 of LN229 cells (human), sequence (P01137 30-390): as the sequence (P01137 30-390 limits assumed, chain 2 of 2) above

Kd [1]: 29 nM | T1/2 Binding [1]: 5.1 min | T1/2 Binding [2]: 102 min | Kd [3]: 0.6 nM | T1/2 Binding [3]: 66 min | Kd [4]: 144 nM | T1/2 Binding [4]: 1.9 min | Kd [5]: 0.68 nM | T1/2 Binding [5]: 72 min | Kd [6]: 110 nM | T1/2 Binding [6]: 7.4 min | Kd [7]: 134 nM | T1/2 Binding [7]: 4.3 min | Kd [8]: 0.57 nM | T1/2 Binding [8]: 102 min | Kd [9]: 2.66 nM | Kd [10]: 29.1 nM | Kd [11]: 0.381 nM | Kd [12]: 0.611 nM | Kd [13]: 145 nM | Kd [14]: 0.68 nM | Kd [15]: 110 nM | Kd [16]: 134 nM | Kd [17]: 0.57 nM | Kd [18]: 0.194 nM | koff [18]: 0.000105 s⁻¹ | kon [18]: 543000 M⁻¹ s⁻¹ | Kd [19]: 38.9 nM | koff [19]: 0.00604 s⁻¹ | kon [19]: 155000 M⁻¹ s⁻¹ | Kd [20]: 43.6 nM | koff [20]: 0.00353 s⁻¹ | kon [20]: 80900 M⁻¹ s⁻¹ | Kd [21]: 0.35 nM | koff [21]: 0.000142 s⁻¹ | kon [21]: 405000 M⁻¹ s⁻¹
B1: SR-AB42-HuFab (Fab, V domains shown)
VH: QVQLVESGGGVVQPGRSLRLSCAASGFTFRSYVMHWVRQAPGKGLEWVAVISHEGSLKYYADSVKGRFTISRDNSKNTLYLQMNSLRAEDTAVYYCARPRIAARRGGFGYWGQGTLVTVSS
VL: NFMLTQPHSVSESPGKTVTISCTRSSGNIDNNYVQWYQQRPGSSPTTVIYEDNQRPSGVPDRFSGSIDSSSNSASLTISGLKTEDEADYYCQSYDYDTQGVVFGGGTKLTVL
notes: Human Fab; also called SR-AB42 Fab; LTBP-SR-AB42 HuFab

Kd [22]: 0.649 nM | koff [22]: 0.000159 s⁻¹ | kon [22]: 244000 M⁻¹ s⁻¹ | Kd [23]: 0.731 nM | Kd [24]: 0.891 nM | Kd [25]: 0.178 nM | koff [25]: 6e-05 s⁻¹ | kon [25]: 337000 M⁻¹ s⁻¹ | binding result [26]: no binding (tested: antigen 100 nM) | IC50, endogenous hLTBP assay (CAGA12 luciferase) [27]: 1.76 nM | IC50, mLTBP1 assay (CAGA12 luciferase) [28]: 0.319 nM
B2: SR-AB43 (antibody, IgG1, V domains shown)
VH: B1 VH
VL: B1 VL with N31Y, Q54V, Y96S, T98N, G100R
notes: Cycle 3, lineage SR-AB23
